Data from paper PMC5586147 (Nature, 2017).

Molecular target: human pro-TGF-β1 (C4S, R249A furin-site mutant, N107Q, N147Q), purified (human)
Experiment: crystal structure

B1: integrin αVβ6 head (three-domain fragment: αV β-propeller and thigh domains, β6 βI domain) (complex)
chain 1: FNLDVDSPAEYSGPEGSYFGFAVDFFVPSASSRMFLLVGAPKANTTQPGIVEGGQVLKCDWSSTRRCQPIEFDATGNRDYAKDDPLEFKSHQWFGASVRSKQDKILACAPLYHWRTEMKQEREPVGTCFLQDGTKTVEYAPCRSQDIDADGQGFCQGGFSIDFTKADRVLLGGPGSFYWQGQLISDQVAEIVSKYDPNVYSIKYNNQLATRTAQAIFDDSYLGYSVAVGDFNGDGIDDFVSGVPRAARTLGMVYIYDGKNMSSLYNFTGEQMAAYFGFSVAATDINGDDYADVFIGAPLFMDRGSDGKLQEVGQVSVSLQRASGDFQTTKLNGFEVFARFGSAIAPLGDLDQDGFNDIAIAAPYGGEDKKGIVYIFNGRSTGLNAVPSQILEGQWAARSGCPPSFGYSMKGATDIDKNGYPDLIVGAFGVDRAILYRARPVITVNAGLEVYPSILNQDNKTCSLPGTALKVSCFNVRFCLKADGKGVLPRKLNFQVELLLDKLKQKGAIRRALFLYSRSPSHSKNMTISRGGLMQCEELIAYLRDESEFRDKLTPITIFMEYRLDYRTAADTTGLQPILNQFTPANISRQAHILLD
chain 2: TEDYPVDLYYLMDLSASMDDDLNTIKELGSRLSKEMSKLTSNFRLGFGSFVEKPVSPFVKTTPEEIANPCSSIPYFCLPTFGFKHILPLTNDAERFNEIVKNQKISANIDTPEGGFDAIMQAAVCKEKIGWRNDSLHLLVFVSDADSHFGMDSKLAGIVCPNDGLCHLDSKNEYSMSTVLEYPTIGQLIDKLVQNNVLLIFAVTQEQVHLYENYAKLIPGATVGLLQKDSGNILQLIISAYEELRSEVELE
stoichiometry N: 1 αVβ6 head per pro-TGF-β1 dimer
